From paper PMC7526454 (JCI Insight, 2020)
Values joined by “and” are separate entries in the source; they are usually repeats but may differ in a detail not shown here. Equal entries are not always repeated. Starred links: 1 amine or outer side, 2 acyl side, 3 side chain; linkers in the order of their positions; H or OH if unused. Non-standard residues stand in square brackets, D forms with d. Groups on a side chain read outwards from the residue. No end group written: not given here. *: point of attachment. C20 diacid = O=C(O)CCCCCCCCCCCCCCCCCCC(=O)*; γGlu = O=C(O)[C@H](CCC(=O)[*:2])N[*:1]; AEEA = NCCOCCOCC(=O)O; Aib = CC(C)(N)C(=O)O

Assays:
[1] = tested on: pancreatic islets; assay: Pancreatic islet perifusion, insulin secretion; conditions: ex vivo perifusion, male mice, iAUC; GLP-1 300 pM, GIP 3 nM (after 1 μM Ex9), tirzepatide 1 nM
[2] = native ligand, during meal induced incretin secretion; cited from earlier work
[3] = target: mouse GLP-1R–LgBiT (mouse) (UniProt O35659)
[4] = target: T1, human GIP receptor (GIPR) (human, UniProt P48546-1 22-466); assay: cell-based or functional assay
T1 sequence (looked up): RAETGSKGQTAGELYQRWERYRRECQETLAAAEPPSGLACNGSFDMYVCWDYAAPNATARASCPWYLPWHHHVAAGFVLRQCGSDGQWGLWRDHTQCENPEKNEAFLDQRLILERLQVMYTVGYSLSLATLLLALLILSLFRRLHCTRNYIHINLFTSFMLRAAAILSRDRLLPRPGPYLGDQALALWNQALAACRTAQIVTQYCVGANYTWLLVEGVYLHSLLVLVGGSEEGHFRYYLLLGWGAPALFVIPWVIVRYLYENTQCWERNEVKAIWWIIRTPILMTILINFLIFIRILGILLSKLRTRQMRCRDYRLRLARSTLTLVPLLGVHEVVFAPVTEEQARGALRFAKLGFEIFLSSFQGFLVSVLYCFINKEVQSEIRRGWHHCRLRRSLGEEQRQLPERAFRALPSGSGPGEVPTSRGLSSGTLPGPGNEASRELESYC

[5] = target: T1, human GIP receptor (GIPR); assay: radioligand binding; competition with [125I]GIP(1-42)OH (GIPR) or [125I]GLP-1(7-36)NH2 (GLP-1R), ~0.12–0.20 nM, on membranes of HEK293 cells expressing the human receptor held on WGA-PVT SPA beads; 1.0 mM MgCl2, 2.5 mM CaCl2, 0.003% w/v Tween-20, 0.1% w/v bacitracin, 25 mM HEPES pH 7.4; 18 hours at room temperature; Ki by the Cheng-Prussoff correction; conditions: one partner purified
[6] = target: T1, human GIP receptor (GIPR); assay: radioligand binding; conditions: one partner purified

Chain of mouse GLP-1R–LgBiT (mouse) (O35659 22-463): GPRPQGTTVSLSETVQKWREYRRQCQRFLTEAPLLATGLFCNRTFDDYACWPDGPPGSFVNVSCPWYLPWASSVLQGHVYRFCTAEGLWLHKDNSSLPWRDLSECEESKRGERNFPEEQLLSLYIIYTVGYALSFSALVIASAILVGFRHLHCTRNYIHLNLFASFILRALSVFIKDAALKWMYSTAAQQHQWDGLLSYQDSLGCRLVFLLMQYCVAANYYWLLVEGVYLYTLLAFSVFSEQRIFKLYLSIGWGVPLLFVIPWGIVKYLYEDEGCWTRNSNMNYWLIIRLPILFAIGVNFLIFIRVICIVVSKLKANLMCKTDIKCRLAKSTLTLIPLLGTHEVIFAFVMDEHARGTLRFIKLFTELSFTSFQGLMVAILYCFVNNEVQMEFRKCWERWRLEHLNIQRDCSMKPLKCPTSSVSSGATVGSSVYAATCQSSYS

CC[C@H](C)[C@H](NC(=O)[C@H](CO)NC(=O)[C@H](Cc1ccc(O)cc1)NC(=O)[C@H](CC(=O)O)NC(=O)[C@H](CO)NC(=O)[C@@H](NC(=O)[C@H](Cc1ccccc1)NC(=O)[C@@H](NC(=O)CNC(=O)[C@H](CCC(=O)O)NC(=O)[C@H](C)NC(=O)[C@@H](N)Cc1ccc(O)cc1)[C@@H](C)O)[C@@H](C)CC)C(=O)N[C@@H](C)C(=O)N[C@@H](CCSC)C(=O)N[C@@H](CC(=O)O)C(=O)N[C@@H](CCCCN)C(=O)N[C@H](C(=O)N[C@@H](Cc1c[nH]cn1)C(=O)N[C@@H](CCC(N)=O)C(=O)N[C@@H](CCC(N)=O)C(=O)N[C@@H](CC(=O)O)C(=O)N[C@@H](Cc1ccccc1)C(=O)N[C@H](C(=O)N[C@@H](CC(N)=O)C(=O)N[C@@H](Cc1c[nH]c2ccccc12)C(=O)N[C@@H](CC(C)C)C(=O)N[C@@H](CC(C)C)C(=O)N[C@@H](C)C(=O)N[C@@H](CCC(N)=O)C(=O)N[C@@H](CCCCN)C(=O)NCC(=O)N[C@@H](CCCCN)C(=O)N[C@@H](CCCCN)C(=O)N[C@@H](CC(N)=O)C(=O)N[C@@H](CC(=O)O)C(=O)N[C@@H](Cc1c[nH]c2ccccc12)C(=O)N[C@@H](CCCCN)C(=O)N[C@@H](Cc1c[nH]cn1)C(=O)N[C@@H](CC(N)=O)C(=O)N[C@H](C(=O)N[C@H](C(=O)N[C@@H](CCC(N)=O)C(N)=O)[C@@H](C)O)[C@@H](C)CC)C(C)C)[C@@H](C)CC [GIP(1-42), GIP(1-42)NH2]
insulin secretion of Arrb1βcell–/– islets compared with control islets [1]: not different

CC[C@H](C)[C@H](NC(=O)[C@H](Cc1ccccc1)NC(=O)[C@H](CCC(=O)O)NC(=O)[C@H](CCCCN)NC(=O)[C@H](C)NC(=O)[C@H](C)NC(=O)[C@H](CCC(N)=O)NC(=O)CNC(=O)[C@H](CCC(=O)O)NC(=O)[C@H](CC(C)C)NC(=O)[C@H](Cc1ccc(O)cc1)NC(=O)[C@H](CO)NC(=O)[C@H](CO)NC(=O)[C@@H](NC(=O)[C@H](CC(=O)O)NC(=O)[C@H](CO)NC(=O)[C@@H](NC(=O)[C@H](Cc1ccccc1)NC(=O)[C@@H](NC(=O)CNC(=O)[C@H](CCC(=O)O)NC(=O)[C@H](C)NC(=O)[C@@H](N)Cc1c[nH]cn1)[C@@H](C)O)[C@@H](C)O)C(C)C)C(=O)N[C@@H](C)C(=O)N[C@@H](Cc1c[nH]c2ccccc12)C(=O)N[C@@H](CC(C)C)C(=O)N[C@H](C(=O)N[C@@H](CCCCN)C(=O)NCC(=O)N[C@@H](CCCNC(=N)N)C(N)=O)C(C)C [GLP-1(7-36), GLP-1(7-36)NH2]
insulin secretion of Arrb1βcell–/– islets compared with control islets [1]: secreted more insulin
Css (free): range of Cmax values [2]: 5-15^E pM

Tirzepatide (LY3298176) (peptide)
other [3]: 6.6 nM and 2.4 nM

B1: Semaglutide (peptide)
chain: HAEGTFTSDVSSYLEGQAAKEFIAWLVRGRG
modifications: Aib at the 2nd residue (written X in the letters); C18 diacid-γGlu-(AEEA)2 on the lysine at the 20th residue
EC50 of cAMP accumulation, HEK293 cells with low density of human GIPR (1,700 receptors/cell) [4]: > 0.85 µM
EC50 of cAMP accumulation, HEK293 cells with medium density of human GIPR (6,400 receptors/cell) [4]: > 0.1 µM
Ki [5]: > 0.5 µM

Y[Aib]EGTFTSDYSI[Aib]LDKIAQK([AEEA-AEEA-γGlu-C20 diacid])AFVQWLIAGGPSSGAPPPS-NH2 [Tirzepatide (LY3298176)]
Ki [6]: 0.000163 µM
